The values that follow come from patent publication US20180021429A1, “ANTICANCER AGENTS OR ANTIMETASTATIC AGENTS USING FSTL1 AND COMBINATION DRUG THEREOF” (PHARMA FOODS INTERNATIONAL CO., LTD., priority 2015, published 2018).

Changes are numbered by the printed parent chain. “Also recorded” adds a separate entry of the source.

In one test the target is T1, FSTL1 (Homo sapiens, UniProt Q12841).
T1 sequence (Q12841 21-308): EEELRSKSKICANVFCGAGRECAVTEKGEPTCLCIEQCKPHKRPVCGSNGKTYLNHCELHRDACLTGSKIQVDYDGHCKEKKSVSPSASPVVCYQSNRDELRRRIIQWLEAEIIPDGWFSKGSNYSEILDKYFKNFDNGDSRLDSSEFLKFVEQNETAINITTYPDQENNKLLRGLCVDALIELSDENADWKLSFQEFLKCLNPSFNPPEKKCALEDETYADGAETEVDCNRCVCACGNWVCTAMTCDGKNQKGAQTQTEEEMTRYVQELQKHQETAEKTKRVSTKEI
The test is described as follows: Inhibition of MSC induction by FSTL1 in mouse bone marrow cells, CD45-negative cells (Examples 6, 8, 12). Type of test: cell-based. Set-up: purchased R&D Systems, Inc. 1694-FN-050. The following applies: antibody 10 μg/mL. The procedure: Mouse bone marrow cells prepared in the same way as in Example 4 were supplemented with 50 ng/mL (final concentration) of FSTL1 and 10 μg/mL of the anti-FSTL1 antibody (#5-2, #5-3, #5-8, #5-10, 45-43, #6-55, or #7-34) or a control antibody anti-DNP antibody and cultured under stimulation. 11 days thereafter, the number of cells was counted while the cells were stained with a PE-Cy5-labeled anti-CD45 antibody (BD Pharmingen/Becton, Dickinson and Company, Cat. No. 555484), and the content of CD45− negative cells reported to generally contain MSCs at a high rate was analyzed by flow cytometry using FACScan to calculate the percentage and number of MSCs per culture (FIG. 67A).
Mouse bone marrow cells prepared in the same way as in Example 4 were supplemented with 20 ng/mL (final concentration) of FSTL1 and 10 μg/mL of the anti-FSTL1 antibody (#5-2, #5-3, #5-8, #5-10, #5-43, #6-55, #8-1, #8-4, #8-7, and #8-8) or a control antibody anti-DNP antibody and cultured under stimulation. 8 days thereafter, the number of cells was counted while the cells were stained with a PE-Cy5-labeled anti-CD45 antibody, and the content of CD45− negative cells was analyzed by flow cytometry using FACScan to calculate the percentage and number of MSCs per culture (FIG. 68A).
Mouse bone marrow cells prepared in the same way as in Example 4 were supplemented with 20 ng/mL (final concentration) of FSTL1 and 10 μg/mL of the anti-FSTL1 antibody (#5-2, #5-8, #6-55, #7-34, #8-1, #8-4, #8-7, or #8-8) or a control antibody anti-DNP antibody and cultured under stimulation. 8 days thereafter, the number of cells was counted while the cells were stained with a PE-Cy5-labeled anti-CD45 antibody, and the content of CD45− negative cells was analyzed by flow cytometry using FACScan to calculate the percentage and number of MSCs per culture (FIG. 69).

Test [1] has as its system human pancreatic cancer cell line Panc1. The test is described as follows: Inhibition of activation of tumor cells by FSTL1, Panc1 (Examples 5, 7, 9, 10, 11). Type of test: cell-based. As to the method:
It is known that tumor cells activated by stimulation with FSTL1 highly express molecule groups promoting bone metastasis and increase metastatic invasive capacity (Cancer Research 73: 6185, 2013). Thus, 2×10^7 cells/well of a human pancreatic cancer cell line Panc1 were suspended in 1 mL/well of D-MEM medium (GIBCO/Thermo Fisher Scientific Inc. Cat. No. C11885500BT) containing 10% fetal bovine serum, supplemented with 50 ng/mL (final concentration) of FSTL1 (R&D Systems, Inc.) and 10 μg/mL of the anti-FSTL1 antibody (#5-2, #5-8, #5-10, #5-43, #6-55, or #7-34) or its isotype mouse IgG (anti-DNP antibody) as a control antibody “Control”, and cultured under stimulation (6-well plate). 3 days thereafter, the number of cells was counted while the cells were stained with a PE-labeled anti-RANKL antibody (eBioscience Cat. No. 12-6619) and a PE-labeled anti-CCR2 antibody (R&D Systems, Inc. Cat. No. FAB151P) in order to examine the expression of markers indicating bone metastatic properties, and the contents of RANKL-positive cells and CCR2-positive cells were analyzed by flow cytometry using FACScan (Becton, Dickinson and Company) to calculate the numbers of cells per culture. […] Therefore, in Examples below, judgment was made with the number of cells as an index.
(§1) In the same way as in Example 5, a human pancreatic cancer cell line Panc1 was supplemented with 50 ng/mL (final concentration) of FSTL1 (R&D Systems, Inc.) and 10 μg/mL of the anti-FSTL1 antibody (the same clones as in Example 6) or a control antibody and cultured under stimulation. 3 days thereafter, the number of cells was counted while the cells were stained with a PE-labeled anti-RANKL antibody and a PE-labeled anti-CCR2 antibody, and the contents of RANKL-positive cells and CCR2-positive cells were analyzed by flow cytometry using FACScan (Becton, Dickinson and Company) to calculate the numbers of cells per culture (FIG. 99B).
as §1, with “20” for “50”, “FSTL1” for “FSTL1 (R&D Systems, Inc.)”, “(#5-2, #5-8, or #6-55)” for “(the same clones as in Example 6)”, “100B).” for “99B).”
as §1, with “FSTL1” for “FSTL1 (R&D Systems, Inc.)”, “(#5-2, #5-3, #6-55, #7-34, #8-1, #8-4, #8-7, or #8-8)” for “(the same clones as in Example 6)”, “culture.” for “culture (FIG. 99B).”
In the same way as in Example 5, a human pancreatic cancer cell line Panc1 was supplemented with 50 ng/mL (final concentration) of FSTL1 and 10 μg/mL of the anti-FSTL1 antibody (#6-55) or a control antibody and cultured under stimulation. 3 days thereafter, the number of cells was counted while the cells were stained with a PE-labeled anti-RANKL antibody and a PE-labeled anti-CCR2 antibody, and the contents of RANKL-positive cells and CCR2-positive cells were analyzed by flow cytometry using FACScan (Becton, Dickinson and Company) to calculate the numbers of cells per culture.

[2] abbreviates: Example 6, FSTL1 50 ng/mL, 11 days.
Setting [3] is: Example 8, FSTL1 20 ng/mL, 8 days.
Setting [4] is: Example 12, FSTL1 20 ng/mL, 8 days.

B1: #5-43: chicken-mouse chimeric anti-FSTL1 antibody clone; variable regions SEQ ID NO: 779 (light), 781 (heavy) (antibody, V domains shown)
VH: AVTLDESGGGLQTPGGGLSLVCKGSGFTFSSFNMFWVRQAPGKGLEWVAGIGKDGGTGYGAAVDGRATISKDSGQSTLRLQLNNLRAEDTGTYYCAKAAGGCSYDWCGAYTGDIDTWGHGTEVIVSS
VL: ASTQPSSVSANPGEAVKITCSGGSGSYYGWYQQKSPGSAPVTVIYNNNQRPSDIPSRFSGSKSGSTATLTITGVQAEDEAVYFCGGYDSSTGHGGIFGAGTTLTVL
modifications: mouse constant regions
B1: the “inhibitory activity against the expansion of CD45-negative cells by FSTL1” value (shortened to “inhibitory activity … by FSTL1”) with FSTL1 (setting [2]) is “higher inhibitory activity and substantially completely inhibited the action of FSTL1”; with FSTL1 (setting [3]), “Inhibitory activity was confirmed; also recorded: exhibited inhibitory activity”.

B2: #5-3: chicken-mouse chimeric anti-FSTL1 antibody clone; variable regions SEQ ID NO: 767 (light), 769 (heavy) (antibody, V domains shown)
VH: B1 VH with G17A, T28S, G56V, T57P, G58K, S73N, L78M, Y94F, A109I, T111A
VL: ASTQPSSVSANPGETVKITCSGGSGYYYGWYQQKSPGSVPVTVIYNNNNRPSDIPSRFSGSKSGSTGTLTITGVRAEDEAVYYCGGYDNSGTGIFGAGTTLTVL
modifications: mouse constant regions
In the case of B2, in test [1] (Example 7: 50 ng/mL FSTL1, 10 μg/mL antibody, 3 days, FIG. 99B), the “inhibitory activity against the expansion of RANKL-positive cells and CCR2-positive cells” value was “higher inhibitory activity”. Moreover, the “inhibitory activity … by FSTL1” value with FSTL1 (setting [2]) was “higher inhibitory activity and substantially completely inhibited the action of FSTL1”.

B3: #8-1: chicken-mouse chimeric anti-FSTL1 antibody clone; variable regions SEQ ID NO: 791 (light), 793 (heavy) (antibody, V domains shown)
VH: B1 VH with G17A, G56V, T57P, G58K, S73N, L78M, Y94F, A109I, T111A
VL: B1 VL with T91S
modifications: mouse constant regions
In the case of B3, the “inhibitory activity … by FSTL1” value with FSTL1 (setting [3]) is given as “Inhibitory activity was confirmed; also recorded: exhibited inhibitory activity”.

B4: #6-55: chicken-mouse chimeric anti-FSTL1 antibody clone; variable regions SEQ ID NO: 783 (light), 785 (heavy) (antibody, V domains shown)
VH: AVTLDESGGGLQTPGGALSLVCKGSGFTFTSVTMQWVRQAPGKGLEWVASVCSGSSTYYAPAVKGRATISRDNGQSTVRLQLSNLRPEDTGTYYCAKIAGRARWSCTSAAYNIDAWGHGTEVIVSS
VL: ASTQPSSVSAIPGETVKITCSGGGNNYGWYQQRSPGSAPVTVIYYNDNRPSNIPSRFSGSTSGSTSTLTITGVQADDEAIYYCGSWDSNTDSGIFGAGTTLTVL
modifications: mouse constant regions
Turning to B4, the “inhibitory activity against the expansion of RANKL-positive cells and CCR2-positive cells” value in test [1] (Example 9: 20 ng/mL FSTL1, 10 μg/mL antibody, 3 days, FIG. 100B) was “exhibited inhibitory activity”; in test [1] (Example 11: 50 ng/mL FSTL1, at all tested doses (5, 10 and 20 μg/mL), no dose dependence, FIG. 100D), ~100%. Also, the “inhibitory activity … by FSTL1” value was “Inhibitory activity was confirmed; also recorded: exhibited inhibitory activity” with FSTL1 (setting [3]); “higher inhibitory activity was confirmed in the order of #7-34, #5-2, #6-55, and #8-7” with FSTL1 (setting [4]).

B5: #7-34: chicken-mouse chimeric anti-FSTL1 antibody clone; variable regions SEQ ID NO: 787 (light), 789 (heavy) (antibody, V domains shown)
VH: AVTLDESGGGLQTPGGGLSLVCKASGFTFSSVTMQWVRQAPGKGLEWVASICSGSSTYYGPAVKGRATISRDNGQNTVRLQLNNLRAEDTATYYCAKIVGRGRWSCTSAAYNIDAWGHGTEVIVSS
VL: B4 VL with I11N, R33K, D47N, D76E, I80V, W86Y, D87E, S88G, N89S
modifications: mouse constant regions
On to B5, for which the “inhibitory activity … by FSTL1” value with FSTL1 (setting [2]) is “higher inhibitory activity and substantially completely inhibited the action of FSTL1”; with FSTL1 (setting [4]), “stronger inhibitory activity was confirmed in the order of clone #7-34, #5-2, 46-55, and #8-7; also recorded: higher inhibitory activity was confirmed in the order of #7-34, #5-2, #6-55, and #8-7; also recorded: stronger inhibitory activity was confirmed in the order of clone #7-34, #5-2, 96-55, and #8-7”.
